B1: TSLP-01 (antibody, V domains shown)
VH: QVQLQESGPGLVKPSETLSLTCAVSGYSISSGYGWSWIRQPPGKGLEWIGYISYYGSISYNPSLKSRVTISRDTSKNQFSLKLSSVTAADTAVYYCARTNLLYFDSWGQGTLVTVSS
VL: EIVMTQSPATLSLSPGERATLSCRASQSVSNNLAWYQQKPGQAPRLLIYDASSRATGIPARFSGSGSGTDFTLTISSLEPEDFAVYYCQQYSDWPQYTFGQGTKVEIK
notes: also called parent antibody TSLP-01
B2: AMG157 (antibody, V domains shown)
VH: QMQLVESGGGVVQPGRSLRLSCAASGFTFRTYGMHWVRQAPGKGLEWVAVIWYDGSNKHYADSVKGRFTITRDNSKNTLNLQMNSLRAEDTAVYYCARAPQWELVHEAFDIWGQGTMVTVSS
VL: SYVLTQPPSVSVAPGQTARITCGGNNLGSKSVHWYQQKPGQAPVLVVYDDSDRPSWIPERFSGSNSGNTATLTISRGEAGDEADYYCQVWDSSSDHVVFGGGTKLTVLG

Columns and labels:
[1] = target: T1, human TSLP (human, UniProt Q969D9 29-159); assay: cell-based or functional assay
[2] = target: T1, human TSLP; assay: ELISA, plate coated with human TSLP, test antibodies as human IgG1
Experimental: (§1) ELISA Screening: Monoclonal scFv antibodies were selected and subjected to ligand binding assays. The first assay was designed to identify scFv antibodies that bound human TSLP and/or cynomolgus TSLP. Briefly, a 96-well plate was coated with human TSLP or cynomolgus TSLP in PBS at 0.1 μg/well and left overnight at 4° C. Before loading the scFv antibodies, the plates were washed with TBST, blocked for 1-2 hours at 37° C. using 5% milk and washed again with TBST. Each scFv sample was first diluted to 40 μg/mL, and 150 μL was added to the first row of wells. The 40 μg/mL scFv samples were then serially diluted at a 1:3 ratio and added to the remaining wells. After incubating for an hour at 37° C., followed by washing with TBST for 6 times, 100 μl of the secondary antibody (HRP labeled mouse anti-flag (1:2500)) was added to each well. After incubation for an hour under 37° C., the plate was washed for 3 times using TBST. TMB was then added at 100 μL/well and incubated for 10-20 minutes at 37° C. 2 M H₂SO₄ was used to stop the reaction. The ELISA results (OD405) were then analyzed and the binding curves were generated by PRISM.

[3] = target: T2, cynomolgus monkey TSLP (cynomolgus monkey, UniProt A0A7N9CAT7 29-159); assay: ELISA, plate coated with cynomolgus monkey TSLP, test antibodies as human IgG1
T2 construct: also called cynomolgus TSLP; recombinant cynomolgus monkey TSLP
Experimental: as §1

[4] = target: T1, human TSLP; assay: ELISA, biotin labeled full length TSLP on streptavidin plate; full length isoform TSLP, not short isoform
Experimental: Binding of anti-TSLP antibodies to short form TSLP was determined using an ELISA method. […] A rabbit serum was used as a negative control. Briefly, a 96-well plate was coated with 100 μl of 1 μg/mL streptavidin overnight. The plates were washed with PBST, then 100 μl of 1 μg/ml biotin labeled short TSLP or long TSLP was added to the plates, incubated at 37° C. for 1 hour. […] After incubating the plates for an hour at 37° C., followed by washing with PBST for 6 times, the secondary antibody anti-human-Fc-HRP or anti-rabbit-Fc-AP was added to each well. After incubation for an hour under 37° C., the plate was washed for 3 times using PBST. TMB or pNPP was then added at 100 μL/well and incubated for 10-20 minutes at room temperature. 2 M H₂SO₄ or 3 M NaOH was used to stop the reaction. The ELISA results were then analyzed and the binding curves were generated by GraphPad Prism 5 software (GraphPad Software).

[5] = target: T2, cynomolgus monkey TSLP; assay: ELISA, plate coated with cynomolgus monkey TSLP
[6] = target: T2, cynomolgus monkey TSLP; assay: solution equilibrium titration, MSD electrochemiluminescence

T1 sequence (Q969D9 29-159 R127A/R130S limits assumed): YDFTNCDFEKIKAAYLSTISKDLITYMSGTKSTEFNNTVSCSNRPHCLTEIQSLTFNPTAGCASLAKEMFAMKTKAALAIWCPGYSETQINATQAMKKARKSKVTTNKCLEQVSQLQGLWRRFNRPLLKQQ
T2 sequence (A0A7N9CAT7 entry or part of it): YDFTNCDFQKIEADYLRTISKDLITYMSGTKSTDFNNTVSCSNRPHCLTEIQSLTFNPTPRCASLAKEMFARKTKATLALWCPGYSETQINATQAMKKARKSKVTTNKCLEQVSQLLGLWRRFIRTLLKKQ

Binder	IC50, inhibition of human TSLP-induced Stat5 activation (Stat5-luciferase reporter, Ba/F3 cells with hTSLPR and hIL7Ra) [1] [µg/mL]	EC50 (read off the curve) [2] [µg/mL]	EC50 (read off the curve) [3] [µg/mL]	EC50 [4] [µg/mL]	EC50 (read off the curve) [5] [µg/mL]	Kd [6] [nM]
B1	0.0193	~0.03	~0.5	0.0335	–	–
B2	–	–	–	–	~0.5	0.0176

From patent US20250277022A1 (STAIDSON BEIJING BIOPHARMACEUTICALS, published 2025)
